Reference: paper PMC12102759

B1: ATXN2 peptide 913-928 (Ataxin-2), 16-mer library wild type / PABPC1 PABC (PABPC1 PABC domain, residues 544-623) (parent)
chain 1: TLNPNAKEFNPRSFSQ
chain 2: PLTASMLASAPPQEQKQMLGERLFPLIQAMHPTLAGKITGMLLEIDNSELLHMLESPESLRSKVDEAVAVLQAHQAKEAA
B2: PAIP1 peptide 126-141 (Polyadenylate-binding protein-interacting protein 1), 16-mer library wild type / PABPC1 PABC (PABPC1 PABC domain, residues 544-623) (parent)
chain 1: SKLSVNAPEFYPSGYS
chain 2: B1 chain 2

Variants of: B1
Experiment: proteomic peptide phage display deep mutational scan (ProP-PD DMS): M13 P8 16-mer library selected against immobilised GST-tagged bait for four days (rounds), NGS of the eluted pools per day and pseudo-replica
Conditions: with PABPC1 PABC (PABPC1 PABC domain, residues 544-623); bait immobilised on MaxiSorp plates (10 µg), library pre-cleared on GST, 2 h binding at 4 °C, five washes; one round per day, days 1-4; value from days 2 and 3; scale: average fractional NGS count over selection days 2 and 3

Screen value of substitutions, site by site:
chain 1 N5: Y 0.000372 | W 0.000157 | S 0.000305 | P 1.03e-05
chain 1 F14: T 0.000127
chain 1 S15: L 6.16e-05 | Y 0.000175 | T 2.11e-05 | N 0.000264 | K 0.00027
chain 1 K7: M 3.88e-05 | E 0.000169 | R 0.000217
chain 1 P4: Q 0.000331 | E 1.57e-05 | A 0.000191 | W 0 | Y 0 | F 0.000109 | S 0.000147
chain 1 N10: G 0.000262 | V 1.03e-05 | E 2.66e-05 | K 0.000142
chain 1 N3: P 0 | T 8.32e-05 | A 0 | H 0 | I 0 | K 0
chain 1 T1: Q 0.000237 | W 4.71e-05 | S 0.000147 | E 0.000115
chain 1 P11: I 9.64e-06
chain 1 L2: D 0
chain 1 S13: V 0.000423 | F 7.96e-05 | I 0 | K 0.000149 | M 0.000163 | E 0.000117 | H 0.00026

Variants of: B2
Experiment: as above
Conditions: with PABPC1 PABC (PABPC1 PABC domain, residues 544-623); bait immobilised on MaxiSorp plates (10 µg), library pre-cleared on GST, 2 h binding at 4 °C, five washes; one round per day, days 1-4; value from days 2 and 3; keep out of graded; scale: average fractional NGS count over selection days 2 and 3

Screen value: each site, then its substitutions
chain 1 L3: F 0.000815 | P 9.03e-05 | V 0.000373 | W 0.000852 | I 0.00043
chain 1 S4: D 0 | N 8.32e-05 | F 0.000754 | G 0.000919 | M 8.55e-05 | E 0.000106 | K 0.000353 | L 0.000589 | A 0.00227
chain 1 S1: H 0.000214 | P 0.000196 | Y 0.000342 | V 0.000196 | A 0.0012 | Q 0.000406 | K 0.00037 | W 0.000299 | M 0.0011 | L 0.00185 | I 0.00076 | F 0 | N 0.000154 | R 7.1e-05
chain 1 K2: G 0.000321 | W 0.000491 | D 0.000197 | P 0.00022 | V 0.000896 | N 0.000212 | Y 0.000158 | A 0.000319 | I 0 | H 4.17e-05 | F 0.000245
chain 1 N6: T 0.000385 | L 0.00023 | V 0.000215 | W 0.000917 | P 0 | I 0.000614 | F 0.000327 | G 0.000194 | M 0.000149 | R 0.000467 | E 0 | Y 0.000705 | A 0.000611 | H 0.000862
chain 1 E9: P 0.000543 | L 0.000721 | F 0.00034 | R 4.17e-05 | M 0.00247 | V 0.000182 | I 8.24e-05 | N 0.00191 | T 0.00117 | S 0.00129 | Q 0.000332 | K 0.000266 | H 0.00439 | D 0.000746 | Y 0.000173
chain 1 A7: H 0.000147 | T 0.00119 | Q 0.00119 | G 0.000863 | S 0.000407 | V 0.000178 | P 0.000137 | N 0.000551 | L 4.17e-05 | M 0.000228
chain 1 P8: D 0.000406 | V 0.00064 | K 8.32e-05 | A 0.000105 | R 0.000635 | G 0.000696 | S 0.000241 | W 0.000763 | M 0.00039 | N 0.0134 | F 0.000185 | Q 0.000383 | Y 0.0021 | I 0.000615 | L 0.000643
chain 1 P12: Q 0.000152 | L 0.00211 | A 0.00198 | N 8.81e-05 | S 0.00133 | M 0.000643 | E 0.000484 | Y 0.00157 | R 4.76e-05 | T 0.000222 | I 0.000623 | F 0.00121 | H 0.00057 | V 5.13e-05
chain 1 F10: W 0.0171 | D 0 | Q 0 | Y 0.00206 | V 0
chain 1 G14: A 0.00104 | E 0.000246 | K 0.000153 | Q 9.29e-05 | Y 0.00125 | T 0.000205 | R 0.000231 | I 0.000195 | P 0.00116 | V 0.000565 | S 0.000279 | M 0.000578
